The source of these data is PMC10089660.

The nature of series [1]: intracellular arylesterase activity, H1993-GR. The settings on record: glycan lost; control: PON1-WT.
The nature of series [2]: SRB drug sensitivity assay. The settings on record: glycan lost; control: PON1-WT.
Series [3] can be described thus: trypsin sensitivity, PON1 ELISA, H1993-GR Golgi/ER fraction. The settings on record: glycan lost; control: PON1-WT. Background: In an ELISA, binding on a coated surface is turned into a signal by an enzyme label.
A short description of series [4]: sandwich ELISA of IL-6, TNF-α, GM-CSF. The settings on record: glycan lost; control: PON1-WT.
A short description of series [5]: CHX chase, immunoblot, PON1 remaining, H1993-GR. The note with it: glycan lost; control: PON1-WT. On the technique in general: A western blot detects proteins with antibodies after separation by electrophoresis.
Series [6] can be described thus: intracellular paraoxonase activity, H1993-GR. The settings on record: glycan lost; control: PON1-WT.
The nature of series [7]: ELISA of secretome PON1, H1993-GR. The note with it: glycan lost; control: PON1-WT.
A further series is described as follows: OxiSelect ROS/RNS assay. The note with it: glycan lost; control: PON1-WT.
The nature of series [8]: trypsin sensitivity, PON1 ELISA, A549 Golgi/ER fraction. The note with it: glycan lost; control: PON1-WT.
Series [9] is described as follows: ATF6 ELISA of Golgi/ER fraction, immunofluorescence. The settings on record: glycan lost; control: PON1-WT.
Series [10] is described as follows: trypsin sensitivity, PON1 ELISA, PON1-overexpressing cells Golgi/ER. The note with it: glycan lost; control: PON1-WT.
Series [11] can be described thus: paraoxonase activity, H1993-GR Golgi/ER fraction. The note with it: glycan changed form; control: siControl.
A short description of series [12]: ELISA of secretome PON1, PNGase F in culture. The settings on record: glycan lost; control: untreated.

B1: paraoxonase 1 (PON1): N253G (protein)
parent chain: MAKLIALTLLGMGLALFRNHQSSYQTRLNALREVQPVELPNCNLVKGIETGSEDLEILPNGLAFISSGLKYPGIKSFNPNSPGKILLMDLNEEDPTVLELGITGSKFDVSSFNPHGISTFTDEDNAMYLLVVNHPDAKSTVELFKFQEEEKSLLHLKTIRHKLLPNLNDIVAVGPEHFYGTNDHYFLDPYLQSWEMYLGLAWSYVVYYSPSEVRVVAEGFDFANGINISPDGKYVYIAELLAHKIHVYEKHANWTLTPLKSLDFNTLVDNISVDPETGDLWVGCHPNGMKIFFYDSENPPASEVLRIQNILTEEPKVTQVYAENGTVLQGSTVASVYKGKLLIGTVFHKALYCEL
As to B1, the enzymatic_activity result in [1] is “decreases”; in [6], “no change”. For the same protein, the “other: EGFR-TKI resistance of GR and ER clones” value in series [2] is reported as “decreases”. Also, the stability_or_folding entry is given as “decreases” in [3], “no change” in [8] and “decreases” in [10]. Moreover, the “other: secretome cytokine levels” value in series [4] is on record as “increases”. In addition, the degradation_or_half_life result in series [5] was “decreases”. Besides, the expression_or_secretion entry in series [7] is “decreases”. Besides, the “other: ROS/RNS in admixture secretome” value in the series “OxiSelect ROS/RNS assay” was “increases”. Besides, the “other: ATF6 level in co-cultured DR clones” value in series [9] is on record as “increases”.

B2: paraoxonase 1 (PON1): N324G (protein)
parent chain: MAKLIALTLLGMGLALFRNHQSSYQTRLNALREVQPVELPNCNLVKGIETGSEDLEILPNGLAFISSGLKYPGIKSFNPNSPGKILLMDLNEEDPTVLELGITGSKFDVSSFNPHGISTFTDEDNAMYLLVVNHPDAKSTVELFKFQEEEKSLLHLKTIRHKLLPNLNDIVAVGPEHFYGTNDHYFLDPYLQSWEMYLGLAWSYVVYYSPSEVRVVAEGFDFANGINISPDGKYVYIAELLAHKIHVYEKHANWTLTPLKSLDFNTLVDNISVDPETGDLWVGCHPNGMKIFFYDSENPPASEVLRIQNILTEEPKVTQVYAENGTVLQGSTVASVYKGKLLIGTVFHKALYCEL
On to B2, for which the “other: EGFR-TKI resistance of GR and ER clones” value in series [2] is “decreases”. Also, the stability_or_folding entry in series [3] is listed as “decreases”. In [7], the expression_or_secretion result was “decreases”.

B3: paraoxonase 1 (PON1): SLC35C1 RNAi (protein)
parent chain: MAKLIALTLLGMGLALFRNHQSSYQTRLNALREVQPVELPNCNLVKGIETGSEDLEILPNGLAFISSGLKYPGIKSFNPNSPGKILLMDLNEEDPTVLELGITGSKFDVSSFNPHGISTFTDEDNAMYLLVVNHPDAKSTVELFKFQEEEKSLLHLKTIRHKLLPNLNDIVAVGPEHFYGTNDHYFLDPYLQSWEMYLGLAWSYVVYYSPSEVRVVAEGFDFANGINISPDGKYVYIAELLAHKIHVYEKHANWTLTPLKSLDFNTLVDNISVDPETGDLWVGCHPNGMKIFFYDSENPPASEVLRIQNILTEEPKVTQVYAENGTVLQGSTVASVYKGKLLIGTVFHKALYCEL
For the protein B3, the enzymatic_activity result in series [11] is recorded as “no change”.

B4: paraoxonase 1 (PON1): PNGase F (protein)
parent chain: MAKLIALTLLGMGLALFRNHQSSYQTRLNALREVQPVELPNCNLVKGIETGSEDLEILPNGLAFISSGLKYPGIKSFNPNSPGKILLMDLNEEDPTVLELGITGSKFDVSSFNPHGISTFTDEDNAMYLLVVNHPDAKSTVELFKFQEEEKSLLHLKTIRHKLLPNLNDIVAVGPEHFYGTNDHYFLDPYLQSWEMYLGLAWSYVVYYSPSEVRVVAEGFDFANGINISPDGKYVYIAELLAHKIHVYEKHANWTLTPLKSLDFNTLVDNISVDPETGDLWVGCHPNGMKIFFYDSENPPASEVLRIQNILTEEPKVTQVYAENGTVLQGSTVASVYKGKLLIGTVFHKALYCEL
Take B4: in [12], the expression_or_secretion result is on record as “no change”.
